Residue numbers refer to the chain shown, from its start.

The text below walks through data of article PMC9942874 (Immunity, 2023).

B1: 15C5 (IgG1) (antibody, V domains shown)
VH: DVQLQESGPGLVNPSQSLSLTCSVTGYSITSDYYWNWIRQFPGNKLEWMGYITYDGTNNYNPFFKNRISITRDTSQNQFFLKLNSVTTEDTATYYCARDGRYWYFDVWGAGTTVTVSS
VL: QIVLTQSPTLMSAFPGEKVTMTCSASSSVSYMYWYQQKPGSSPKPWIYLTSNLASGVPARFSGSGSGTSYSLTISSMEAEDAATYYCQQWNNSPPTFGAGTKLELK
notes: also called humanized analog of the 15C5 mouse mAb
B2: RUPA-137 (antibody, V domains shown)
VH: QITLKESGPALVKPTQTLTLTCTFSGFSLTSSGVGVVWVRQPPEKALEWLALIYWDDDRRYSPSLETRLNISKDTSKNQVVLTMTNMDPLDTATYFCAHSRASGWYGYWGQGTLVTVSS
VL: QSVLTQPPSASGTPGQRVTISCSGSRSNLGTNFVYWYQQLPGTAPKLLIYKNYQRPSGVPDRFSGSKSGTSASLSISGLRSEDEADYYCAAWDDNLNGFYVFGTGTKLTVV
notes: also called RUPA-137 (IgG1)
B3: RUPA-126 (antibody, V domains shown)
VH: QVQLVQSGAEVKKPGASVTVSCKASGYTFTDYYLHWVRQAPGHGLEWMGWINPNSGITEYAQKFQGRVTVTRDTSISTIYMDLSRLRSDDTAIYYCVRRERGSPYTLFDYWGQGTLVIVSS
VL: QSVLTQPPSASGTPGQRVTISCSGGDSNIGTNYGYWYQQFPGTAPKLLIYWNNRRPSGVPDRFSGSKSGTSVFLAISGLRSEDEADYYCAAWDDSLSAPVFGGGTKLTVI
notes: also called RUPA-126 (IgG1)
B4: RUPA-133 (antibody, V domains shown)
VH: QVQLVQSGAEVKKPGASVNVSCMPSGYTFSDYFLHWVRQAPGQGLEWMGWINPNSGLTKYAQKFQGRVTMTSDTSISTVYLDLSRLRSDDTAIYFCVRRERGSPYTLFDYWGQGTLVTVSS
VL: B3 VL with D26A, G34V, F40L, F73S, A98G
notes: also called RUPA-133 (IgG1)
B5: RUPA-33 (antibody, V domains shown)
VH: EVQLVESGGGLVQPGRSLRLSCAASGFTFDDYAVHWVRQVPGKGLEWVSGISWNSATLAYADSVTGRFTISRDNARNSLYLQMNSLRIEDTALYYCARALPERTYGHRAFDYWGRGTQVTVSS
VL: QSALTQPRSVSGSPGQSVTISCTGTSSDVGYFTFVSWYQQHPGEVPKLIIYDVTKRPSGVPDRFSGSKSGNTASLTISGLQSDDEADYYCCSYAGTYHIRFGGGTKLTVL
notes: also called RUPA-33 (IgG1)
B6: RUPA-136 (antibody, V domains shown)
VH: EVQLVESGGGLVRPGGSLRLSCAASGFNFSAYGMNWVRQAPGRGLEWISYISHNTSIIHYADSVKGRFTISRDNGANSLYLQLNTLRDGDTAVYYCVRDCATLIGGRLPICQYFFDYWGQGALVTVSS
VL: SYELTQPSSVSVSLGQTASITCSGDMLTGKYVRWFQQKPGQAPILVIYKDRKRPSGIPDRFSGSSSGTTVTLIINGARIEDEADYYCYSAAARKRVFGGGTKLTVL
notes: also called RUPA-136 (IgG1)
B7: RUPA-39 (antibody, V domains shown)
VH: DVQLVESGGGLVKPGGSLRLSCAASGFTFSSYTMNWVRQAPGKGLEWVSSISTNIRYIYYADSVKGRFTISRDNAKNSLFLQMDSLRAEDTAVYYCATIAGPLSLKGDFYFDSWGQGTLVTVSS
VL: EIVMTQSPATLSVSPGERATLSCRASQSVSSSLAWYQQKPGQAPRLLIHGASTRATGIPTRFSGSGSGTEFTLTISSLQSEDFAVYYCQQYANWPPWTFGQGTKVESK
notes: also called RUPA-39 (IgG1)
B8: RUPA-55 (antibody, V domains shown)
VH: B7 VH with S30N, Y110F, S124P
VL: B7 VL
notes: also called RUPA-55 (IgG1)
B9: RUPA-135 (antibody, V domains shown)
VH: EVQLVDSGGGLVQPGGSLKLTCATSGFFFSGSAMHWVRQASGKGLEWVGRIRSKGNNYATAYAASVKGRFTISRDDSKNTAYLQMDSLKTEDTAVYYCSSRNSKVPDYWGQGTLVTVSS
VL: QSVLTQPPSASGTPGQRVTIFCSGSSSNIGSNFVYWYQQLPGAAPKLLIYRNHQRPSGVPDRLSGSKSGTSASLAISGLRSEDEADYYCAAWDDSLNVQVFGGGTKVTVL
notes: also called RUPA-135 (IgG1)
B10: RUPA-32 (antibody, V domains shown)
VH: EVQLVESGGGLVKPGGSLRLSCAASGFAFSTYAMSWVRQAPGKGLEWVSSISESSSYTYYTDSVKGRFTISRDNAKKSLFLHMNSLRAEDTAVYYCARSDGLSMIAAPFDYWGQGARVTVSS
VL: EIVLTQSPATLSLSPGERATLSCRTSQSLSISLVWYQQKPGQAPRLLISDASNRAPGIPARFSASGSGTDFTLTISSLEPEDFAVYYCQQRSNWPPITFGQGTRLEMK
notes: also called RUPA-32 (IgG1)
B11: RUPA-103 (antibody, V domains shown)
VH: EVQLVESGGGLVKPGGSLRLSCAASGFTFSSYSMNWVRQAPGKGLEWVSSISSGSSYKYYSDSVKGRFTISRDNAKNSLYLQMNTLRAEDTAVYYCARAPEPGLLWFGEWGDYWGQGTLVTVSS
VL: EIVLTQSPVTLSLSPGERATLSCRASQSISSSLAWYQQKPGQAPRLLIYDASNRATGIPARFSGSGSGTDFTLTISSLEPEDFAVYYCQQRSIWPPITFGQGTRLEIQ
notes: also called RUPA-103 (IgG1)
B12: RUPA-115 (antibody, V domains shown)
VH: EVQLVESGGGLVQPGRSLRLFCAASGFNFDDYAMHWVRQAPGKGLEWVSGISWNSGTLAYADFVMGRFTISRDTAKNSLYLQMNSLRAEDTAFYYCAKDLKKYISSSLDYWGQGTLVTVFS
VL: QSALTQPRSVSGSPGQSVTISCTGTSSDVGAYNFVSWFQHHPGKAPKLMIYDVTKRPSGVPDRFSASKSGNTASLTISGLQAEDEAEYYCCSYAGTYHVVFGGGTKLTVL
notes: also called RUPA-115 (IgG1)
B13: RUPA-62 (antibody, V domains shown)
VH: EVQLVESGGGLVQPGRSLRLSCAASGFTFDDYAMHWVRQAPGKGLEWVSGISWNSGSIGYADSVNGRFTISRDNAKKSLYLQMNSLRPEDTALYYCAKDTHEYSSSPGDYWGQGTLVTVSS
VL: B12 VL with A31G, N33T, F38S, H40Q, T54S, A66G, E87D
notes: also called RUPA-62 (IgG1)
B14: RUPA-73 (antibody, V domains shown)
VH: EPQLVESGGGLVQPGRSLRLSCAGSGFTFGDYAMHWVRQAPGKGLEWVSGISWNSGTLAYAVFVEGRFTISRDNAKNSLYLQMNSLRPEDTAFYYCAKDVKNYVSGGCSDWGQGSLVTVSS
VL: B12 VL with A31G, N33E, F38Y, H40Q, H41Y, M49I, D62A, R63H, E87D, V100L
notes: also called RUPA-73 (IgG1)
B15: RUPA-38 (antibody, V domains shown)
VH: EVQLVESGGGLVQPGRSLRLSCAVSGFNFEDYAMHWVRQTPGKGLEWVSGISWNSGTLAYGDFVQGRFIISRDNAKNFLYLQMNSLRPEDTALYYCANDRMRWIQVPHYWGQGTLVTVSS
VL: B12 VL with Q1L, S26N, S27D, A31E, F34Y, F38Y, H40Q, E87N, V99M
notes: also called RUPA-38 (IgG1)
B16: RUPA-96 (antibody, V domains shown)
VH: B12 VH with F21S, A24V, N28T, D31N, M83L, A88T, F93L, L100I, K102M
VL: B12 VL with I20V, S26N, M49I, V53I
notes: also called RUPA-96 (IgG1)

Sequence of Pfs230 Pro (Plasmodium falciparum 3D7 (P68874 443-590): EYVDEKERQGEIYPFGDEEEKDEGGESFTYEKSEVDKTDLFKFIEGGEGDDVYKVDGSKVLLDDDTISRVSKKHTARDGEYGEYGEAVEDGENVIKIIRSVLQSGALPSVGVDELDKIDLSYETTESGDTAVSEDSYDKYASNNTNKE
Sequence of native Pfs230 (gametocyte extract) (Plasmodium falciparum NF54 (P68874 21-3135): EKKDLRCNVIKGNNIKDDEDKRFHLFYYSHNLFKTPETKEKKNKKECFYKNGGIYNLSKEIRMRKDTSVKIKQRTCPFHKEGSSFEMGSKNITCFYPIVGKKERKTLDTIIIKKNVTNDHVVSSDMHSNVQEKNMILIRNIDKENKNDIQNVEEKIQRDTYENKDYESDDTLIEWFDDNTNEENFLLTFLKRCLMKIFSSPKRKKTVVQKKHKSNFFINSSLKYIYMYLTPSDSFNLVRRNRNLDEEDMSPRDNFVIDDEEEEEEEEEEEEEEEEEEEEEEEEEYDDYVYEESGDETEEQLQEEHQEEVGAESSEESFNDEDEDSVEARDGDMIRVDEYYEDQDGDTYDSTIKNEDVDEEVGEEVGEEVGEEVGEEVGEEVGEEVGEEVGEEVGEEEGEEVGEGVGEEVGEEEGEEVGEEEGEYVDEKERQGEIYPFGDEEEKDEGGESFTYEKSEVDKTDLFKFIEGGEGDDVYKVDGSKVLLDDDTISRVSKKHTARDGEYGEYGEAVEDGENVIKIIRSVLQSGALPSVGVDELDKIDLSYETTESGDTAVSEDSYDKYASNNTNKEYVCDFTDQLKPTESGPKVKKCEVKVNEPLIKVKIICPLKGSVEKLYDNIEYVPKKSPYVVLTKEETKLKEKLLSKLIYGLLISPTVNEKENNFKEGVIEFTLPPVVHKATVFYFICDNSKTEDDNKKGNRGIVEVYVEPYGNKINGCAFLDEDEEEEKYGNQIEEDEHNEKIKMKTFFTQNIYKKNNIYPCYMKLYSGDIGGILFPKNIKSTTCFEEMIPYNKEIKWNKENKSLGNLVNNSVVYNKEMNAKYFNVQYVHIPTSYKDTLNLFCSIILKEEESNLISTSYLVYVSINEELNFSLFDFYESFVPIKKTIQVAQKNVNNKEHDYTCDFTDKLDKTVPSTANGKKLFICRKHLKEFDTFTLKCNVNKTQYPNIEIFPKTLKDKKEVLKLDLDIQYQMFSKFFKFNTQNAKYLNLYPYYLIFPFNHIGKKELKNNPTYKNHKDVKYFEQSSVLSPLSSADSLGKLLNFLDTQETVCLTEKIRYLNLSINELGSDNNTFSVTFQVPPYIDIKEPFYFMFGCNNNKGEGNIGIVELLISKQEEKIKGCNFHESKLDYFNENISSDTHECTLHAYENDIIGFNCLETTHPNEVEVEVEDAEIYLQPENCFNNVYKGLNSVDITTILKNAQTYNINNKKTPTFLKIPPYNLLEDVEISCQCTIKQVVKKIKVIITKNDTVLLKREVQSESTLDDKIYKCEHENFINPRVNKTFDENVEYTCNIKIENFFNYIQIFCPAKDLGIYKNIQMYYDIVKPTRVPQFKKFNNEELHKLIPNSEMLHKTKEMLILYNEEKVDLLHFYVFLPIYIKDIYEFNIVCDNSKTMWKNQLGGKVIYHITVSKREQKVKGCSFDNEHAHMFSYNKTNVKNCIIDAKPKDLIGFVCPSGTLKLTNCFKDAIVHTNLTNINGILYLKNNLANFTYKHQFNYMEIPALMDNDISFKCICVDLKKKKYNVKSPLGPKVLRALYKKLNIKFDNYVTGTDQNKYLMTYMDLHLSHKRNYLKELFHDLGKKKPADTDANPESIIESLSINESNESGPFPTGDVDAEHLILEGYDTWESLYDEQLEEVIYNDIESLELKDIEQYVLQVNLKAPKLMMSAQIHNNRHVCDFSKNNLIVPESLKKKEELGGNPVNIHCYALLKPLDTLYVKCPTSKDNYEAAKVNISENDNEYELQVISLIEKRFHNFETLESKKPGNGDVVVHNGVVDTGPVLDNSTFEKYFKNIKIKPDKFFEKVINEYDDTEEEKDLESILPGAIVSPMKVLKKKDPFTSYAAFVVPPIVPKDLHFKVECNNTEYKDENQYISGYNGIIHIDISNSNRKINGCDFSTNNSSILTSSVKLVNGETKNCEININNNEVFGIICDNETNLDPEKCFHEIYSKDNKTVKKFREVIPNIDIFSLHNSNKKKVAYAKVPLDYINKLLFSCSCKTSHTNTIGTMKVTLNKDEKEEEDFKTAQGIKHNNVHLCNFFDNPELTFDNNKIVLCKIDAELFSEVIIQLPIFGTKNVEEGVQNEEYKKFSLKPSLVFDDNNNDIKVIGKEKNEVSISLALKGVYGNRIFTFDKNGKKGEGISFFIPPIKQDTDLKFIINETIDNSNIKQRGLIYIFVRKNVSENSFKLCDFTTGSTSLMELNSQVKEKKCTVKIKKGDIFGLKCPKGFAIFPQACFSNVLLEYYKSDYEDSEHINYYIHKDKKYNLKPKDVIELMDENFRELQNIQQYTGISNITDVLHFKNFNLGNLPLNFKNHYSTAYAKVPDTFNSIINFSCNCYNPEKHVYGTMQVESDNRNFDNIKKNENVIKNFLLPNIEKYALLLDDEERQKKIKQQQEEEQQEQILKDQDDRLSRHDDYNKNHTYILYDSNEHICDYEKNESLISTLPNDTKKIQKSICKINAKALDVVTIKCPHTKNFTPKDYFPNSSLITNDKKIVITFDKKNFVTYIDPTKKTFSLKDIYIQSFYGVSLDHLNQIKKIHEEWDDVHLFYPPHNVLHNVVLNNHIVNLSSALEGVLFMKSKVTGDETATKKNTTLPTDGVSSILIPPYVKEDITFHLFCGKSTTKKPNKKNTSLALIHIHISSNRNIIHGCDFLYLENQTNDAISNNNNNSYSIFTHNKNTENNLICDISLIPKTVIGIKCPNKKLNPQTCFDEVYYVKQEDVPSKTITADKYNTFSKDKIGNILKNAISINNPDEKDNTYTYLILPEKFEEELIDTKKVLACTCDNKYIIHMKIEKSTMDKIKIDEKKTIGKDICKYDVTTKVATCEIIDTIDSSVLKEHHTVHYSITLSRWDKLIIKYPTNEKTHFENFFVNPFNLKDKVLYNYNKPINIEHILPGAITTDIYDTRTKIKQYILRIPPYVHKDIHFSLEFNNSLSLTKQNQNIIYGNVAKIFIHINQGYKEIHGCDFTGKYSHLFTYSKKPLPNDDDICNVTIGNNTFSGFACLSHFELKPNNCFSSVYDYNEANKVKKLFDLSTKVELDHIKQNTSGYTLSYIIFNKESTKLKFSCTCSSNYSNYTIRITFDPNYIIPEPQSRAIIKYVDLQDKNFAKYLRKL

One experiment deals with T1, Pfs230 C1 (Plasmodium falciparum 3D7 (clone of …, UniProt P68874)). Put plainly: SPR. As to conditions: both partners purified.
T1 sequence (P68874 443-731): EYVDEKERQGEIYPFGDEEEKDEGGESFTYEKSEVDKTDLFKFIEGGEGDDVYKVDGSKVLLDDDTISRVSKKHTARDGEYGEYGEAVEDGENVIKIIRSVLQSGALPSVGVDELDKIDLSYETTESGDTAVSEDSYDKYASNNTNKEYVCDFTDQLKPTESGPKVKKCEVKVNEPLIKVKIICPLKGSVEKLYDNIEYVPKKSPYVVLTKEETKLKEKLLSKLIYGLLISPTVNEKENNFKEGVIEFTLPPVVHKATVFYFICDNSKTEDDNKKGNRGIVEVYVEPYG
For the molecule B1, the binding result is “binds”.

A further experiment deals with T1, Pfs230 C1. Put plainly: ELISA. The note with it: both partners purified. Background: In an ELISA, binding on a coated surface is turned into a signal by an enzyme label.
With B2, the binding result was “binds”.

Consider B3, for which the binding result is recorded as “binds”. On the same count and under the same terms, as for B4, the entry is “binds”. The same measure, in the same setting: in the case of B5 it was “binds”; in that of B6, “binds”; in that of B7, “binds”. For the molecule B8, the binding result was “binds”. As to B9, the binding result is reported as “binds”.

As for B10, the binding result is listed as “binds”. Regarding B11, the binding result is listed as “binds”. In the case of B12, the binding result is “binds”.

Take B13: the binding result is on record as “binds”. B14: the binding result is on record as “binds”. As for B15, the binding result is “binds”. As for B16, the binding result is “binds”.

A further experiment concerns the target Pfs230 Pro (Plasmodium falciparum 3D7 (clone of …, UniProt P68874)). Put plainly: ELISA. The note with it: both partners purified.
Consider B2, for which the binding result is “binds”. For B6, the binding result was “binds”. Turning to B9, the binding result is recorded as “binds”.

A further experiment addresses native Pfs230 (gametocyte extract) (Plasmodium falciparum NF54 (3D7 is its …, UniProt P68874)). Description: […]; 5 μg/ml mAb in PBST; […]. As to conditions: one partner purified.
Turning to B3, the binding result was “binds”.

On to B4, for which the binding result is reported as “binds”. As for B5, the binding result is reported as “binds”. For the molecule B7, the binding result was “binds”.

As for B8, the binding result is recorded as “binds”. For B10, the binding result is reported as “binds”.

In the case of B11, the binding result was “binds”. Same read-out and setting: as for B12, the entry is “binds”; as for B13, “binds”. As to B14, the binding result is given as “binds”.

On to B15, for which the binding result is “binds”.

For the molecule B16, the binding result is given as “binds”.
